± gives the uncertainty stated by the source.

We go through 51 variants from the Human Domainome abundance scans (Beltran et al. 2025).

B1: Max-interacting protein 1, residues 70 to 120; numbered along this chain, P50539 (parent)
chain: STHNELEKNRRAHLRLCLERLKVLIPLGPDCTRHTTLGLLNKAKAHIKKLE

Variants of B1 are the subject of this data set. In words: abundance fitness (aPCA) (normalised: wild type 0, dead -1); higher = more abundant; growth selection in yeast, the domain comes from the species named. Particulars: Homo sapiens.
For STHNELGKNRRAHLRLCLERLKVLIPLGPDCTRHTTLGLLNKAKAHIKKLE [E7G], the abundance fitness is -0.099 ± 0.081.

On to STHNELAKNRRAHLRLCLERLKVLIPLGPDCTRHTTLGLLNKAKAHIKKLE [E7A], for which the abundance fitness was -0.263 ± 0.09.

STHNELNKNRRAHLRLCLERLKVLIPLGPDCTRHTTLGLLNKAKAHIKKLE [E7N]: the abundance fitness was found to be 0.176 ± 0.24.

As for STHNELRKNRRAHLRLCLERLKVLIPLGPDCTRHTTLGLLNKAKAHIKKLE [E7R], the abundance fitness was -0.161 ± 0.086. As to STHNELIKNRRAHLRLCLERLKVLIPLGPDCTRHTTLGLLNKAKAHIKKLE [E7I], the abundance fitness is -0.479 ± 0.14. The value for STHNELKKNRRAHLRLCLERLKVLIPLGPDCTRHTTLGLLNKAKAHIKKLE [E7K] was 0.061 ± 0.13; that for STHNELHKNRRAHLRLCLERLKVLIPLGPDCTRHTTLGLLNKAKAHIKKLE [E7H] was -0.3 ± 0.16. The value for STHNELCKNRRAHLRLCLERLKVLIPLGPDCTRHTTLGLLNKAKAHIKKLE [E7C] was -0.267 ± 0.11.

As for STHNELSKNRRAHLRLCLERLKVLIPLGPDCTRHTTLGLLNKAKAHIKKLE [E7S], the abundance fitness came to 0.06 ± 0.095. The value for STHNELVKNRRAHLRLCLERLKVLIPLGPDCTRHTTLGLLNKAKAHIKKLE [E7V] was -0.185 ± 0.092; that for STHNELFKNRRAHLRLCLERLKVLIPLGPDCTRHTTLGLLNKAKAHIKKLE [E7F] was -0.273 ± 0.15; that for STHNELMKNRRAHLRLCLERLKVLIPLGPDCTRHTTLGLLNKAKAHIKKLE [E7M] was -0.173 ± 0.12. The value for STHNELYKNRRAHLRLCLERLKVLIPLGPDCTRHTTLGLLNKAKAHIKKLE [E7Y] was -0.205 ± 0.15; that for STHNELQKNRRAHLRLCLERLKVLIPLGPDCTRHTTLGLLNKAKAHIKKLE [E7Q] was -0.169 ± 0.13.

For the variant STHNELDKNRRAHLRLCLERLKVLIPLGPDCTRHTTLGLLNKAKAHIKKLE [E7D], the abundance fitness was -0.184 ± 0.13. For the variant STHNELTKNRRAHLRLCLERLKVLIPLGPDCTRHTTLGLLNKAKAHIKKLE [E7T], the abundance fitness was -0.468 ± 0.14.

In the case of STHNELLKNRRAHLRLCLERLKVLIPLGPDCTRHTTLGLLNKAKAHIKKLE [E7L], the abundance fitness is -0.109 ± 0.091. Regarding STHNELWKNRRAHLRLCLERLKVLIPLGPDCTRHTTLGLLNKAKAHIKKLE [E7W], the abundance fitness is -0.004 ± 0.11. As for STHNSLEKNRRAHLRLCLERLKVLIPLGPDCTRHTTLGLLNKAKAHIKKLE [E5S], the abundance fitness is -0.205 ± 0.11. STHNNLEKNRRAHLRLCLERLKVLIPLGPDCTRHTTLGLLNKAKAHIKKLE [E5N]: the abundance fitness came to 0.282 ± 0.17.

With STHNILEKNRRAHLRLCLERLKVLIPLGPDCTRHTTLGLLNKAKAHIKKLE [E5I], the abundance fitness was -0.185 ± 0.17. The value for STHNRLEKNRRAHLRLCLERLKVLIPLGPDCTRHTTLGLLNKAKAHIKKLE [E5R] was -0.27 ± 0.097; that for STHNTLEKNRRAHLRLCLERLKVLIPLGPDCTRHTTLGLLNKAKAHIKKLE [E5T] was -0.006 ± 0.13; that for STHNKLEKNRRAHLRLCLERLKVLIPLGPDCTRHTTLGLLNKAKAHIKKLE [E5K] was -0.232 ± 0.17. Regarding STHNPLEKNRRAHLRLCLERLKVLIPLGPDCTRHTTLGLLNKAKAHIKKLE [E5P], the abundance fitness was -0.15 ± 0.11.

Turning to STHNGLEKNRRAHLRLCLERLKVLIPLGPDCTRHTTLGLLNKAKAHIKKLE [E5G], the abundance fitness is -0.244 ± 0.1. The value for STHNFLEKNRRAHLRLCLERLKVLIPLGPDCTRHTTLGLLNKAKAHIKKLE [E5F] was -0.514 ± 0.29; that for STHNWLEKNRRAHLRLCLERLKVLIPLGPDCTRHTTLGLLNKAKAHIKKLE [E5W] was -0.435 ± 0.14. The value for STHNQLEKNRRAHLRLCLERLKVLIPLGPDCTRHTTLGLLNKAKAHIKKLE [E5Q] was -0.193 ± 0.12.

STHNYLEKNRRAHLRLCLERLKVLIPLGPDCTRHTTLGLLNKAKAHIKKLE [E5Y]: the abundance fitness is -0.069 ± 0.14.

For STHNMLEKNRRAHLRLCLERLKVLIPLGPDCTRHTTLGLLNKAKAHIKKLE [E5M], the abundance fitness came out at 0.119 ± 0.11. The value for STHNENEKNRRAHLRLCLERLKVLIPLGPDCTRHTTLGLLNKAKAHIKKLE [L6N] was -0.329 ± 0.31. The value for STHNEREKNRRAHLRLCLERLKVLIPLGPDCTRHTTLGLLNKAKAHIKKLE [L6R] was 0.172 ± 0.082.

As to STHNEDEKNRRAHLRLCLERLKVLIPLGPDCTRHTTLGLLNKAKAHIKKLE [L6D], the abundance fitness is -0.066 ± 0.17.

Regarding STHNETEKNRRAHLRLCLERLKVLIPLGPDCTRHTTLGLLNKAKAHIKKLE [L6T], the abundance fitness was -0.025 ± 0.11. The value for STHNEAEKNRRAHLRLCLERLKVLIPLGPDCTRHTTLGLLNKAKAHIKKLE [L6A] was -0.171 ± 0.1; that for STHNEIEKNRRAHLRLCLERLKVLIPLGPDCTRHTTLGLLNKAKAHIKKLE [L6I] was -0.189 ± 0.2; that for STHNEMEKNRRAHLRLCLERLKVLIPLGPDCTRHTTLGLLNKAKAHIKKLE [L6M] was -0.247 ± 0.13. Turning to STHNEFEKNRRAHLRLCLERLKVLIPLGPDCTRHTTLGLLNKAKAHIKKLE [L6F], the abundance fitness was -0.228 ± 0.17. On to STHNEEEKNRRAHLRLCLERLKVLIPLGPDCTRHTTLGLLNKAKAHIKKLE [L6E], for which the abundance fitness was -0.574 ± 0.14. The value for STHNEKEKNRRAHLRLCLERLKVLIPLGPDCTRHTTLGLLNKAKAHIKKLE [L6K] was -0.086 ± 0.13. For the variant STHNEWEKNRRAHLRLCLERLKVLIPLGPDCTRHTTLGLLNKAKAHIKKLE [L6W], the abundance fitness was -0.566 ± 0.096. As for STHNECEKNRRAHLRLCLERLKVLIPLGPDCTRHTTLGLLNKAKAHIKKLE [L6C], the abundance fitness is -0.123 ± 0.13.

Consider STHNEQEKNRRAHLRLCLERLKVLIPLGPDCTRHTTLGLLNKAKAHIKKLE [L6Q], for which the abundance fitness is 0.18 ± 0.13. As for STHNEGEKNRRAHLRLCLERLKVLIPLGPDCTRHTTLGLLNKAKAHIKKLE [L6G], the abundance fitness turned out to be 0.203 ± 0.085. The value for STHNESEKNRRAHLRLCLERLKVLIPLGPDCTRHTTLGLLNKAKAHIKKLE [L6S] was 0.096 ± 0.1.

Regarding STHNEPEKNRRAHLRLCLERLKVLIPLGPDCTRHTTLGLLNKAKAHIKKLE [L6P], the abundance fitness came out at 0.36 ± 0.16.

With STHNEYEKNRRAHLRLCLERLKVLIPLGPDCTRHTTLGLLNKAKAHIKKLE [L6Y], the abundance fitness was -0.277 ± 0.31. The value for STHNEVEKNRRAHLRLCLERLKVLIPLGPDCTRHTTLGLLNKAKAHIKKLE [L6V] was -0.005 ± 0.093. As to STHNEHEKNRRAHLRLCLERLKVLIPLGPDCTRHTTLGLLNKAKAHIKKLE [L6H], the abundance fitness came to 0.519 ± 0.2. The value for STHNELEKNRVAHLRLCLERLKVLIPLGPDCTRHTTLGLLNKAKAHIKKLE [R11V] was -0.509 ± 0.087.
